This test concerns the target T1, soluble mouse GPNMB-Fc polypeptide (Fc of human IgG1 or mouse IgG2A, not specified for the assay) (mouse, UniProt Q99P91 23-502).
T1 construct: extracellular domain; also called moGPNMB-Fc; mGPNMB; not shown: Fc region of human IgG1 or mouse IgG2A; in the Fab2 assay detected with anti-human IgG1 secondary antibody
T1 sequence (looked up): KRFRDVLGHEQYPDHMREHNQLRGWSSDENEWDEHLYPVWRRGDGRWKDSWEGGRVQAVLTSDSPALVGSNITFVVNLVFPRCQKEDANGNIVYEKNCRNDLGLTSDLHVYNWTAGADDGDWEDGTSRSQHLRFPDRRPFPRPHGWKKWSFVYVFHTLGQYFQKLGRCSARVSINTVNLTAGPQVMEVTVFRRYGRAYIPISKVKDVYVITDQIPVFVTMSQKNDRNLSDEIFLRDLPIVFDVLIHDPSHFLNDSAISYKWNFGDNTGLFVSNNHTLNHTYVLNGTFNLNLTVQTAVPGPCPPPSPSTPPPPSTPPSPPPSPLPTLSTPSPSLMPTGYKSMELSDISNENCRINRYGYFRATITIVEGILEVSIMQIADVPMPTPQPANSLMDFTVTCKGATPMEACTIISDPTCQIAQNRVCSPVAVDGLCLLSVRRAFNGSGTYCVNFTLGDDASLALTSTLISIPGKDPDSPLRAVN
Put plainly: FACS, Fab2 blocking moGPNMB-Fc binding to SVEC4-10 cells. How it is done:
Purified recombinant Fab2 fragments of select anti-GPNMB antibodies of the present disclosure were produced through transient transfection and purified. Briefly, 2 ug/mL soluble mouse or human GPNMB-Fc diluted in binding buffer was pre-complexed with increasing concentrations of anti-GPNMB Fab2 fragments in 96-well plates. Subsequently, 100,000 SVEC4-10 cells were added per well and incubated on ice for 30 minutes. Soluble moGPNMB-Fc or huGPNMB-Fc bound to cell surface was detected with fluorescent anti-human IgG1 secondary antibody and measured on FACSCanto. IC50 and EC50 values based on changes in MFI values were calculated for each antibody.

B1: recombinant Fab2 fragment of anti-GPNMB antibody GPN-48 (other)
VH: QVQLQQSGPELVKPGASVKLSCRASGYGFSSFWMNWVKQRPGKGLEWIGRIYPGKGDTLYNGKFKDKATLTADESSSTAYMQLSSLTSEDSAVYFCARSIYYYDYWYFDVWDTGTTVTVSS
VL: DIVMTQSHKFMSTSVGDRVNITCKASQDVNSAIAWYQQKPGQSPKLLIYSASYRFIGVPDRFTGSGSGTGFTFTISSVQAEDLAVYYCQQHYTTPLTFGAGTKLELK
notes: also called GPN-48 Fab2
As to B1, the concentration for half-maximal inhibition (IC50) was determined as 2.33 nM.

(Values after patent publication US20250270343A1 (Alector, published 2025).)
